Results reported in patent US20110008258A1, “METHODS RELATING TO BREATHING DISORDERS” (SAMSARA MEDICIN AB, priority 2007, published 2011).

Key:
[1] = tested on: IL-1β-induced respiratory depression; conditions: cited from earlier work
EP3R^+/+ mice = test: Flow plethysmography after icv PGE2, EP3R+/+ mice; format: in vivo
Procedure: (§1) A Plexiglas chamber (35 ml) was connected to a highly sensitive direct airflow sensor (0-200 ml/min; TRN3100, Kent Scientific Corporation, Litchfield, Conn., USA). The flow signal was amplified by a four-channel amplifier (P/N 770 S/N 5; SENSElab, Somedic Sales, Hörby, Sweden), converted to digital signal, and recorded at 100 Hz by an online computer using DasyLab software (Datalog GmbH & Co. KG, Mönchengladbach, Germany). Respiratory frequency (fR, breaths/min), tidal volume (VT, μl/breath), and minute ventilation (VE, μl/min) were calculated. Chamber temperature was maintained at 30.1±0.1° C. in accordance with the documented thermoneutral range for neonatal mice by immersing the chamber in a thermostat-controlled water bath (49). As described previously, the chamber was calibrated by repeatedly injecting standardized volumes of air (5-200 μl) with preset precision syringes (Hamilton Bonaduz AG, Switzerland) (6). 95% of gas exchange occurred within 35 s of administration, which was verified by CO2 content analyses (Metek CD-3A and S-3A, PA, USA).
(§2) Respiration was examined using flow plethysmography in 9 d-old C57BL/6 mice (n=38) with variable expression of EP3R. After the administration of sevoflurane anesthesia for approximately 60 s, PGE2 (4 nmol in 2-4 μl aCSF) or vehicle was slowly injected into the lateral ventricle using a thin pulled glass pipette attached to polyeethylene tubing. The mouse was then placed immediately into the plethysmograph chamber. After a 10 min recovery period in normoxia, the mouse was exposed to hyperoxic and anoxic challenge as described above. Animal skin temperature was recorded at baseline and at each subsequent minute using a thermistor temperature probe.
(§3) Periods of calm respiration without movement artefact were selected for analysis. Mean fR, VT, and VE values during normoxia and hyperoxia as well as the anoxic response (i.e., hyperpnea, primary apnea, gasping, secondary apnea, and autoresuscitation) were analyzed as described previously (6, the disclosure of which is expressly incorporated herein by reference). Survival was recorded for all animals. Apnea was defined as cessation of breathing for three respiratory cycles. Regularity of breathing was quantified using the coefficient of variation (C.V.) (i.e., SD divided by mean of breath-by-breath interval during 60 periods).

EP3R^−/− mice [2] = test: Flow plethysmography after icv PGE2, EP3R−/− mice; format: in vivo
Procedure: as §1, §2, §3

[3] = tested on: brainstem spinal-cord preparations from EP3R^+/+ pups; test: En bloc brainstem-spinal cord preparation, respiratory activity, EP3R+/+; design: species or system mice; conditions: PGE2 20 μg/l, 2-3 d old EP3R+/+ pups, n=5, reversible
Procedure: (§4) Brainstem-spinal cord preparations were rapidly isolated from 2 d-old C57BL/6 mice with EP3R^+/+ and EP3R^−/− genotypes as described previously (n=11) (50, 51, both of which are expressly incorporated herein by reference). Respiratory-related activity corresponding to the inspiratory rhythm was monitored at the C4 ventral root through a glass suction electrode, recorded (5 kHz), and analyzed offline. Control recordings were performed for at least 20 min before perfusion with aCSF containing PGE2 followed by an aCSF washout period.
(§5) The brainstem was rostrally decerebrated between the cranial nerve VI roots and the lower border of the trapezoid body so that the pons was removed. The preparation was continuously perfused in a 1.5 ml chamber with artificial cerebrospinal fluid (aCSF): 130 mM NaCl, 3.3 mM KCl, 0.8 mM KH2PO4, 0.8 mM CaCl2, 1.0 mM MgCl2, 26 mM NaHCO3, and 30 mM D-glucose at 28° C. (flow rate, 3-4 ml/min). The solution was continuously equilibrated with 95% O2 and 5% CO2 to pH 7.4 (50, 51).

[4] = tested on: brainstem spinal-cord preparations from EP3R^−/− mice; test: En bloc brainstem-spinal cord preparation, respiratory activity, EP3R−/−; conditions: PGE2 20 μg/l, n=6
Procedure: as §4, §5

[5] = Procedure: PGE2 and metabolites thereof may persist and may be measured even after more than 72 hours. Half time for PGE2 degradation various considerably pending on the cellular environment. Half-life of PGE2 can vary from a few minutes to several hours. When evaluating PGE2 produced in the body and secreted in urine or other body fluids it is important to also measure its metabolites.
mPGES-1 enzyme = molecular target: T1, mPGES-1 enzyme (Homo sapiens, UniProt O14684); conditions: reported in refs 75-77; read-out: IC50, inhibition of mPGES-1; cited from earlier work
T1 sequence (O14684 1-152): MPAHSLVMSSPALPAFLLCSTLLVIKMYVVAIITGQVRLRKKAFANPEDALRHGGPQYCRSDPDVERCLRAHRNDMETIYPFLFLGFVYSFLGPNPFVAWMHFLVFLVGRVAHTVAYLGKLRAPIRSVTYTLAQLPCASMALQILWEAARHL

mPGES-1^+/+ mice = test: Whole-body flow plethysmography after i.p. IL-1β, mPGES-1+/+ mice; format: in vivo
Procedure: as §1, with “Chamber temperature was maintained at 30.1±0.1° C. in accordance with the documented thermoneutral range for neonatal mice by immersing the chamber in a thermostat-controlled water bath (49).” left out, “(6).” for “(6). 95% of gas exchange occurred within 35 s of administration, which was verified by CO2 content analyses (Metek CD-3A and S-3A, PA, USA).”
(§6) Each mouse received an intraperitoneal injection (0.01 ml/g) of IL-1β (10 μg/kg) or vehicle. At 70 min, the mouse was placed unrestrained into the plethysmograph chamber. Respiration was assessed during 4 min of normoxia (21% O2) followed by 1 min of hyperoxia (100% O2). After a 5 min recovery period in normoxia, the respiratory response to anoxia (100% N2) was examined. Finally, 100% O2 was administered for 8 min, and the ability to autoresuscitate was evaluated. Skin temperature was recorded at baseline, at 70 min, and after removal from the chamber. Rectal temperature was not measured as rectal probe placement may alter respiratory behavior. The anogenital distance was measured to approximate gender.
as §3
(§7) As there is a variable response to anoxia based upon age (53), we attempted to perform all recordings at age P9; however, in an effort to minimize confounding age-related effects, weight was used as a correlate of age and only animals with weights within 1 SD of the population mean weight were included in the anoxia and survival analyses (6).

mPGES-1^−/− mice = test: Whole-body flow plethysmography after i.p. IL-1β, mPGES-1−/− mice; format: in vivo
Procedure: as §1, with “Chamber temperature was maintained at 30.1±0.1° C. in accordance with the documented thermoneutral range for neonatal mice by immersing the chamber in a thermostat-controlled water bath (49).” left out, “(6).” for “(6). 95% of gas exchange occurred within 35 s of administration, which was verified by CO2 content analyses (Metek CD-3A and S-3A, PA, USA).”
as §6, §3, §7

EP3R^−/− mice [6] = test: Whole-body flow plethysmography after i.p. IL-1β, EP3R−/− mice; format: in vivo
Procedure: as §1, with “Chamber temperature was maintained at 30.1±0.1° C. in accordance with the documented thermoneutral range for neonatal mice by immersing the chamber in a thermostat-controlled water bath (49).” left out, “(6).” for “(6). 95% of gas exchange occurred within 35 s of administration, which was verified by CO2 content analyses (Metek CD-3A and S-3A, PA, USA).”
as §6
as §3, with “periods). […]” for “periods).”

mPGES-1 = mPGES-1 activity in brain membrane fraction after IL-1β; format: in vivo, mice
Procedure: Newborn mouse brains (n=33) were homogenized in 0.1M KPi (potassium inorganic phosphate) buffer containing 0.25M sucrose, 1× complete protease inhibitor (Roche Diagnostics) and 1 mM reduced glutathione followed by sonication. Membrane fraction was isolated by subcellular fractionation. mPGES-1 activity was measured in the membrane fraction as described previously (52, the disclosure of which is expressly incorporated herein by reference).

[7] = 9 d-old EP3R+/+ mice, PGE2 icv, hyperoxia (100% O2)
[8] = 9 d-old EP3R+/+ mice, PGE2 icv, normoxia
[9] = 9 d-old EP3R−/− mice, PGE2 icv, hyperoxia (100% O2)
[10] = 9 d-old EP3R−/− mice, PGE2 icv, normoxia
[11] = 9 d-old mPGES-1+/+ mice, IL-1β i.p., hyperoxia (100% O2)
[12] = 9 d-old mPGES-1+/+ mice, IL-1β i.p., normoxia
[13] = mPGES-1+/+ mice, anoxia at 80 min after IL-1β
[14] = 9 d-old mPGES-1−/− mice, IL-1β i.p., hyperoxia (100% O2)
[15] = 9 d-old mPGES-1−/− mice, IL-1β i.p., normoxia
[16] = mPGES-1−/− mice, anoxia at 80 min after IL-1β
[17] = EP3R wildtype mice, 90 min after IL-1β

## COc1ccc2c(c1)c(CC(=O)O)c(C)n2C(=O)c1ccc(Cl)cc1 [indomethacin]
[1]
  effect on respiratory depression induced by IL-1β: attenuates the respiratory depression
[1]; neonatal rats
  effect on adverse effects of IL-1β on hypoxic gasping and anoxic survival: attenuates the adverse effects

## CCCCC[C@H](O)/C=C/[C@H]1[C@H](O)CC(=O)[C@@H]1C/C=C\CCCC(=O)O [PGE2, Prostaglandin E2]
EP3R^+/+ mice; 9 d-old EP3R+/+ mice, PGE2 4 nmol icv, normoxia
  fR, normoxia: 247 ± 13 breaths/min
EP3R^+/+ mice; 9 d-old EP3R+/+ mice, PGE2 icv, anoxia (100% N2)
  Hyperpnea fR: 267 ± 11 breaths/min
EP3R^+/+ mice; [7]
  VE, hyperoxia: 745 ± 102 µL/min/g
  VT, hyperoxia: 4.4 ± 1.1 μl/br/g
  fR, hyperoxia: 190 ± 16 breaths/min
EP3R^+/+ mice; [8]
  VE, normoxia: 901 ± 154 µL/min/g
  VT, normoxia: 3.7 ± 0.4 μl/br/g
EP3R^+/+ mice; EP3R+/+ mice, PGE2 icv, compared to vehicle
  gasping response and anoxic survival: did not alter the gasping response or anoxic survival
EP3R^+/+ mice; EP3R+/+ mice, PGE2 icv, normoxia and hyperoxia, vs vehicle
  apnea frequency and breathing pattern: induced a significantly greater apnea frequency and irregular breathing pattern
EP3R^−/− mice [2]; 9 d-old EP3R−/− mice, PGE2 4 nmol icv, normoxia
  fR, normoxia: 256 ± 10 breaths/min
EP3R^−/− mice [2]; 9 d-old EP3R−/− mice, PGE2 icv, anoxia (100% N2)
  Hyperpnea fR: 290 ± 9 breaths/min
EP3R^−/− mice [2]; [9]
  VE, hyperoxia: 1509 ± 299 µL/min/g
  VT, hyperoxia: 6.7 ± 1.3 μl/br/g
  fR, hyperoxia: 229 ± 9 breaths/min
EP3R^−/− mice [2]; [10]
  VE, normoxia: 1350 ± 129 µL/min/g
  VT, normoxia: 5.2 ± 0.5 μl/br/g
EP3R^−/− mice [2]; EP3R−/− mice, PGE2 icv, compared to vehicle
  gasping response and anoxic survival: did not alter the gasping response or anoxic survival
EP3R^−/− mice [2]; EP3R−/− mice, PGE2 icv, normoxia and hyperoxia, vs vehicle
  induction of apneas: not observed
[3]
  respiratory rhythm generation, relative to control frequency (fR): 64±5 % of control frequency
[4]
  effect on respiratory activity: did not affect respiratory activity
[5]
  half-life of PGE2: 12 to 18 h

## CSc1ccc(/C=C2/C(C)=C(CC(=O)O)c3cc(F)ccc32)cc1 [sulindac sulfide]
mPGES-1 enzyme
  IC50: 80 µM

## CCCCC/C=C\C\C=C/C=C/C=C/[C@@H](SC[C@H](NC(=O)CC[C@H](N)C(=O)O)C(=O)NCC(=O)O)[C@@H](O)CCCC(=O)O [leukotriene C4]
mPGES-1 enzyme
  IC50: 5 µM

B1: IL-1β: Recombinant mouse interleukin-1β (Nordic Biosite AB), pro-inflammatory cytokine given i.p. to neonatal mice (protein, UniProt P10749 118-269, looked up)
Interleukin-1 beta: VPIRQLHYRLRDEQQKSLVLSDPYELKALHLNGQNINQQVIFSMSFVQGEPSNDKIPVALGLKGKNLYLSCVMKDGTPTLQLESVDPKQYPKKKMEKRFVFNKIEVKSKVEFESAEFPNWYISTSQAEHKPVFLGNNSGQDIIDFTMESVSS
mPGES-1^+/+ mice; 9 d-old mPGES-1+/+ mice, IL-1β 10 μg/kg i.p., normoxia, mean±SEM
  fR, normoxia: 224 ± 5 breaths/min
mPGES-1^+/+ mice; [11]
  VE, hyperoxia: 628 ± 43 µL/min/g
  VT, hyperoxia: 3.9 ± 0.2 μl/br/g
  fR, hyperoxia: 155 ± 7 breaths/min
mPGES-1^+/+ mice; [12]
  VE, normoxia: 730 ± 38 µL/min/g
  VT, normoxia: 3.2 ± 0.2 μl/br/g
mPGES-1^+/+ mice; mPGES-1+/+ mice, 5 min anoxia at 80 min after IL-1β i.p.
  anoxic survival: significantly reduced anoxic survival
mPGES-1^+/+ mice; mPGES-1+/+ mice, anoxia (100% N2) at 80 min after IL-1β
  Hyperpnea fR: 390 ± 11 breaths/min
mPGES-1^+/+ mice; [13]
  Gasping Response Duration: 82 ± 7
  Gasping Response Gasp #: 30 ± 2
  Gasping Response Gasp fR: 23 ± 1
  Hyperpnea Duration: 61 ± 2
mPGES-1^−/− mice; [14]
  VE, hyperoxia: 795 ± 67 µL/min/g
  VT, hyperoxia: 3.9 ± 0.3 μl/br/g
  fR, hyperoxia: 206 ± 11 breaths/min
mPGES-1^−/− mice; [15]
  VE, normoxia: 660 ± 41 µL/min/g
  VT, normoxia: 2.7 ± 0.1 μl/br/g
  fR, normoxia: 245 ± 7 breaths/min
mPGES-1^−/− mice; mPGES-1−/− mice, anoxia (100% N2) at 80 min after IL-1β
  Hyperpnea fR: 338 ± 24 breaths/min
mPGES-1^−/− mice; [16]
  Gasping Response Duration: 146 ± 23
  Gasping Response Gasp #: 36 ± 3
  Gasping Response Gasp fR: 18 ± 2
  Hyperpnea Duration: 57 ± 2
mPGES-1^−/− mice; mice lacking mPGES-1, 5 min anoxia at 80 min after IL-1β i.p.
  anoxic survival: did not decrease survival
EP3R^−/− mice [6]; EP3R−/− mice, IL-1β i.p.
  hypoxic ventilatory response: unable to affect the hypoxic ventilatory response
  ventilation during normoxia or hyperoxia: did not alter ventilation
EP3R^−/− mice [6]; mice lacking EP3R, 5 min anoxia at 80 min after IL-1β i.p.
  anoxic survival: did not decrease survival
mPGES-1; [17]
  mPGES-1 activity (PGE2), brainstem: 1111±49 pmol/min/mg protein
  mPGES-1 activity (PGE2), cortex: 710±44 pmol/min/mg protein
mPGES-1; IL-1β-treated mice exposed to anoxia (100% N2, 5 min)
  brainstem mPGES-1 activity compared to control mice: four-times higher activity
mPGES-1; between 90 and 180 min after IL-1β
  cortex mPGES-1 activity: remained unchanged
mPGES-1; mice with genetic deletion of mPGES-1 gene, IL-1β and anoxia
  mPGES-1 activity: negligible activity
mPGES-1; wildtype mice, 90 min after IL-1β
  brainstem mPGES-1 activity compared to saline-treated mice: approximately two-fold higher activity
mPGES-1; wildtype mice, 180 min after IL-1β
  increase in brainstem mPGES-1 activity: four-fold increase
